# B1: Bce44B: plastid transport protein, Brassica napus 44 kDa chloroplast envelope protein, member of Com44/Cim44, encoded by SEQ ID NO:1 (protein)
# chain: MQTAMKTMMNQMNTQNSQFNNPGFPTGAGAGAGSPFPFPFPPQTSPTTSPFQPQSQSSGATVDLTATKVDRPPVSKPQPTPIPPTKSIEVYKPSVVVEENKAMKEEKNYAFEDVSPEETTKESPFSNYEEVSETSAPKETRLFDDVLQNGAAPANGATASDVFQSLGAGKGWAGGSVEVLEKMIEYPTFQKMLYPHLPEEMRNPESFKWVRKNPQYRQQLQDMLNNMSESGEWDKRMTETLKNFDPNSPEVKQGFDQLGLTPEEVISKIMENPDVSMAFQNPRVEAALMDCSENPMNIMKYQNDKEVMDVFNKISQLFPGLTG
# Assays:
# [1] = tested on: β-lactamase transport in E. coli MM52 (secAts); test: Ampicillin resistance, colony formation in temperature-sensitive secA mutant strain MM52; type: cell-based, Escherichia coli; conditions: 30° C. permissive temperature
# Text: The effects of Bce44B on β-lactamase transport were further tested in a temperature-sensitive secA (secAts) mutant bacterial strain (MM52, a gift from Dr. Jon Beckwith, Harvard Medical School, Boston Mass.) to provide further evidence that the expressed Bce44B component affected protein translocation in bacteria and that the protein transport enhancement was not due solely to the upregulation of the existing bacterial transport machinery such as SecA. See Example 17. The defective protein translocation phenotype in MM52 appears primarily when cells are subjected to temperatures above 30° C. Protein translocation slows down and comes to a halt upon shifting to temperatures above 30° C. […] Effects on protein transport can then be monitored in this strain by tracking the β-lactamase profiles at permissive and non-permissive temperatures.
# The same Bce44B gene construct and control Oee1-Dhfr plasmid were introduced into MM52 and its wild type counterpart strain MC4100 (containing the wild-type SecA) via electroporation. The role of Bce44B in protein translocation was assessed as before using three different criteria: 1) the level of antibiotic resistance conferred; 2) the profile of transported versus precursor β-lactamase at permissive and non-permissive temperatures; and 3) the level of sensitivity of protein transport to sodium azide. […]
# [2] = tested on: β-lactamase transport in E. coli MM52 (secAts); test: Sodium azide sensitivity of β-lactamase transport in MM52; type: cell-based, Escherichia coli; conditions: MM52 strain, 30° C., two hours, sodium azide 0 to 1 mM
# Description: Overnight cultures of MM52-Bce44B, MM52-Oee1-Dhfr, MC4100-Bce44B, and MC4100-Oee1-Dhfr cells were used as inocula for parallel experiments. These freshly inoculated cultures were grown at 30° C. for two hours in media containing increasing concentrations of sodium azide (from 0 to 1 MM). Cells were then harvested, and normalized according to cell number before analysis. […] Azide sensitivity characteristics were firther assessed by growing both wild-type and mutant bacterial lines in the media containing 0.5 mM sodium azide for 0, 1 and 2 hr.
# Sensitivity of the bacterial strains to sodium azide was determined in the same manner as outlined in Oliver el al. (1990) Proc. Natl. Acad. Sci. USA 87:8227. Changes to β-lactamase transport activity in response to sodium azide was used as a monitor of differences in the protein translocation activity of Bce44B- versus Oee1-Ohfr-expressing cells. […]
# The pBCE44B and pOEEIDHFR plasmids were introduced into E. coli strain MM52 (Oliver and Beckwith, (1981) Cell 25:765) by electroporation using the BioRad Gene Pulser and the supplied protocols for E. coli strains. […] The plasmid-harboring MM52 strains were grown in LB-ampicillin broth and analyzed in the same manner as the JM109(DE3) strains described above.
molecule,measurement,setting,value
B1,ampicillin concentration up to which expressing cells form colonies,[1],up to 3 mg/ml
same,sodium azide concentration at which precursor form of β-lactamase appears,[2],0.25 to 0.375 mM
